Four molecules from patent US20240360228A1 (BIOLEGEND, published 2024) can be followed below.

Assay [1] concerns the target T1, human CCR8 (human, UniProt P51685 1-355).
T1 construct: Native CCR8 on human PBMC (CCR8+ CD3+ or CCR8+ CD4+ lymphocytes); also called chemokine (C-C motif) receptor 8
Description: flow, PBMC CCR8+CD3+; PE-L263G8 staining after isotype block.

Assay [2] has as its target T1, human CCR8. As to the kind of experiment: flow blocking, PBMC CCR8+CD4+; competitor PE-AB13. The essentials: (§1)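 Human PBMC (100 μL suspension) were pre-blocked with 10 μg of each unlabelled anti-CCR8 antibody or isotype control. Cells were then stained 15 min in the dark with 0.25 μg of the PE-conjugated competitor antibody plus anti-CD4 or anti-CD3. Read-out by flow cytometry as MFI on CCR8+CD4+ or CCR8+CD3+ lymphocytes.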

The target in assay [3] is T1, human CCR8. Description: flow blocking, PBMC CCR8+CD4+; competitor PE-433H. The method, boiled down:
as §1

Assay [4] deals with T1, human CCR8. As to the kind of experiment: flow blocking, PBMC CCR8+CD3+; competitor PE-AB12. The method, boiled down:
(§2)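 Measures displacement of a PE-conjugated competitor (0.25 μg, 15 min, dark) after preincubation with 10 μg unlabeled antibody or isotype. CCR8+ CD4+ or CD3+ lymphocyte MFI is read by flow cytometry and reported as percent blocking relative to isotype.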

Assay [5] addresses T1, human CCR8. Description: flow blocking, PBMC CCR8+CD4+; competitor PE-AB5. The method, boiled down:
(§3)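 Unlabeled antibodies (10 μg) or isotype control are preincubated with the cells as blockers. A PE-conjugated competitor (0.25 μg) is then added with anti-CD4 or anti-CD3 for 15 min in the dark, and MFI on CCR8+ lymphocytes is normalized to isotype to give blocking %.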

The target of assay [6] is T1, human CCR8. Description: flow blocking, PBMC CCR8+CD3+; competitor PE-AB14. The essentials: as §2
For assay [7], the target named is T1, human CCR8. Description: flow blocking, PBMC CCR8+CD3+; competitor PE-AB11. The essentials:
as §2

Assay [8] deals with T1, human CCR8. As to the kind of experiment: flow blocking, PBMC CCR8+CD4+; competitor PE-AB3. The method, boiled down:
as §3

Assay [9] has as its target T1, human CCR8. As to the kind of experiment: flow blocking, PBMC CCR8+CD3+; competitor PE-L263G8. The method, boiled down:
as §2

Assay [10] concerns the target T1, human CCR8. Description: flow blocking, PBMC CCR8+CD4+; competitor PE-AB2. The method, boiled down:
as §3

Assay [11] concerns the target T1, human CCR8. Description: flow blocking, PBMC CCR8+CD4+; competitor PE-AB1. The method, boiled down:
as §3

Assay [12] concerns the target T1, human CCR8. As to the kind of experiment: flow blocking, PBMC CCR8+CD4+; competitor PE-AB6.
The target of assay [13] is T1, human CCR8. As to the kind of experiment: flow blocking, PBMC CCR8+CD4+; competitor PE-AB12. The method, boiled down: as §3
The target of assay [14] is T1, human CCR8. As to the kind of experiment: flow blocking, PBMC CCR8+CD3+; competitor PE-AB13. The method, boiled down:
as §2

For assay [15], the target named is T1, human CCR8. Description: flow blocking, PBMC CCR8+CD4+; competitor PE-AB11. The method, boiled down:
as §3

For assay [16], the target named is T1, human CCR8. As to the kind of experiment: flow blocking, PBMC CCR8+CD4+; competitor PE-AB10. The essentials:
as §3

For assay [17], the target named is T1, human CCR8. As to the kind of experiment: flow blocking, PBMC CCR8+CD3+; competitor PE-AB8. The method, boiled down: as §2
The target of assay [18] is T1, human CCR8. As to the kind of experiment: flow blocking, PBMC CCR8+CD4+; competitor PE-AB14. The method, boiled down: as §1
Assay [19] has as its target human chemokine (C-C motif) receptor 8 (CCR8) (human) (UniProt P51685). As to the kind of experiment: flow cytometry blocking, PBMC CCR8+ CD4+ cells; competitor PE-AB6 (its MFI is read).
Assay [20] concerns the target T1, human CCR8. Description: flow blocking, PBMC CCR8+CD3+; competitor PE-AB5. The essentials:
as §2

Assay [21] deals with T1, human CCR8. Description: flow blocking, PBMC CCR8+CD3+; competitor PE-AB10. The method, boiled down:
as §2

For assay [22], the target named is T1, human CCR8. As to the kind of experiment: flow blocking, PBMC CCR8+CD4+; competitor PE-AB15. The essentials:
as §3

The target in assay [23] is T1, human CCR8. As to the kind of experiment: flow blocking, PBMC CCR8+CD3+; competitor PE-433H. The method, boiled down: as §2
Assay [24] has as its target T1, human CCR8. Description: flow blocking, PBMC CCR8+CD3+; competitor PE-AB6. The method, boiled down:
as §2

Assay [25] addresses T1, human CCR8. Description: flow blocking, PBMC CCR8+CD3+; competitor PE-AB15. The essentials: as §2
In assay [26] the target is T1, human CCR8. As to the kind of experiment: flow blocking, PBMC CCR8+CD3+; competitor PE-AB7. The essentials:
as §2

Assay [27] deals with T1, human CCR8. Description: flow blocking, PBMC CCR8+CD4+; competitor PE-AB4. The method, boiled down:
as §3

Assay [28] deals with T2, human chemokine (C-C motif) receptor 8 (CCR8) (human, UniProt P51685 1-355).
T2 construct: On human peripheral blood lymphocytes / PBMC (native) or on human CCR8 GFP-transfected Ba/F3 cells; also called hCCR8; human CCR8
T2 sequence (P51685 whole entry): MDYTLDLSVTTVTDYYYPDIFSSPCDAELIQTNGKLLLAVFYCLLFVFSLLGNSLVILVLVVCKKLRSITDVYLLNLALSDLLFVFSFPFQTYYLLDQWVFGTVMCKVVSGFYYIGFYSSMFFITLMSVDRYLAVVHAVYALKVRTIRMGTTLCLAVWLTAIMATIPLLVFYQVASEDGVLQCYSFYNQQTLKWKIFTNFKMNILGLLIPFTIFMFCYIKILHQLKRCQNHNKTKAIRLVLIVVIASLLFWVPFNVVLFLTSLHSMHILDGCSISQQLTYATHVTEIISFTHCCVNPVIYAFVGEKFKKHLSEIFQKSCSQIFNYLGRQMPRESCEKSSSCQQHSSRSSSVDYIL
Description: flow cytometry blocking, PBMC CCR8+ CD4+ cells; competitor PE-AB15 (its MFI is read). The essentials: as §3
(In general: Flow cytometry measures light scatter and fluorescence of single cells or particles in a stream.)

Assay [29] deals with T2, human chemokine (C-C motif) receptor 8 …. Description: flow cytometry blocking, PBMC CCR8+ CD4+ cells; competitor PE-AB13 (its MFI is read). The essentials:
as §3

The target is the same in assay [30]. As to the kind of experiment: flow cytometry blocking, PBMC CCR8+ CD4+ cells; competitor PE-AB14 (its MFI is read). The method, boiled down:
as §3

The target is the same in assay [31]. As to the kind of experiment: flow cytometry blocking, PBMC CCR8+ CD4+ cells; competitor PE-AB1 (its MFI is read). The method, boiled down: as §3
Assay [32] has the same target. As to the kind of experiment: flow cytometry blocking, PBMC CCR8+ CD4+ cells; competitor PE-AB11 (its MFI is read). The essentials:
as §3

For assay [33] the target is unchanged. Description: flow cytometry blocking, PBMC CCR8+ CD4+ cells; competitor PE-ABII (its MFI is read). The method, boiled down:
as §3

Assay [34] shares this target. As to the kind of experiment: cell-based or functional assay.
Assay [35] has the same target. As to the kind of experiment: flow cytometry blocking, PBMC CCR8+ CD4+ cells; competitor PE-AB4 (its MFI is read). The method, boiled down: as §3
The target is the same in assay [36]. Description: flow cytometry blocking, PBMC CCR8+ CD4+ cells; competitor PE-AB2 (its MFI is read). The essentials:
as §3

The target is the same in assay [37]. Description: flow cytometry blocking, PBMC CCR8+ CD4+ cells; competitor PE-AB3 (its MFI is read). The essentials: as §3
For assay [38] the target is unchanged. Description: flow cytometry blocking, PBMC CCR8+ CD4+ cells; competitor PE-AB12 (its MFI is read). The method, boiled down: as §3
For assay [39] the target is unchanged. As to the kind of experiment: flow cytometry blocking, PBMC CCR8+ CD4+ cells; competitor PE-AB6 (its MFI is read). The method, boiled down: as §3
For assay [40] the target is unchanged. Description: flow cytometry blocking, PBMC CCR8+ CD4+ cells; competitor PE-AB10 (its MFI is read). The method, boiled down:
as §3

Assay [41] shares this target. Description: flow cytometry blocking, PBMC CCR8+ CD4+ cells; competitor PE-AB5 (its MFI is read). The essentials:
as §3

For assay [42] the target is unchanged. Description: cell-based or functional assay. The source holds these as a separate data set.
The target of assay [43] is T1, human CCR8. Description: flow, PBMC CCR8+CD3+; PE-433H staining after isotype block.
Assay [44] deals with T1, human CCR8. Description: flow, PBMC CCR8+CD4+; PE-433H staining after isotype block.

T1 sequence (P51685 whole entry): as above
human chemokine (C-C motif) receptor 8 (CCR8) (human), sequence (P51685 whole entry): as above

The molecule Commercial L263G8 (antibody) registered an MFI with human CCR8 [1] of 674.
Regarding isotype control (antibody), the % Blocking in the assay with human CCR8 [2], with human CCR8 [3], in the assay with human CCR8 [4], with human CCR8 [5], in the assay with human CCR8 [6] and in the assay with human CCR8 [7] was 0% throughout. Besides, the % Blocking with human CCR8 [8], with human CCR8 [9], in the assay with human CCR8 [10], with human CCR8 [11], with human CCR8 [12] and with human CCR8 [13] was 0% throughout. For the same molecule, the % Blocking (with human CCR8 [14]; with human CCR8 [15]; with human CCR8 [16]; in the assay with human CCR8 [17]; with human CCR8 [18]; in [19]) was 0% throughout. For the same molecule, the % Blocking with human CCR8 [20], with human CCR8 [21], in the assay with human CCR8 [22], with human CCR8 [23], with human CCR8 [24] and in the assay with human CCR8 [25] was 0% throughout. Besides, the % Blocking with human CCR8 [26] and in the assay with human CCR8 [27] was 0% in each case.

B1: AB11 (antibody, V domains shown)
VH: EVQLVESGGGLVQPKGSLKLSCAASGFAFNTYAMNWVRQAPGKGLEWIARLRSKSNFYATYYADSVKDRFTISRDDSQSMLYLQMNNLKTEDTAVYYCVRGRELGPSYAMDYWGQGTSVTVSS
VL: DIVMTQAAPSVPVTPGESVSISCRSSKSLLHSNGNTYLYWFLQRPGQSPQLLIYRMSNLASGVPDRFSGSGSGTAFTLRISRVEAEDVGVYYCMQHLEYPYTFGGGTKLEIK
notes: Hybridoma monoclonal; also called antibody 11; clone 11
On to B1, for which the “% Blocking” value in [28] is -75.1%; in assay [29], 7.44%; in [30], -1190%; in assay [31], -48.1%; in assay [32] it was 25.3%; in assay [33], 16.6%. Further, the “% Blocking” value is -53.4% in assay [35]; -53.5% in [36]; -61.7% in assay [37]; 0.83% in assay [38]; -36.2% in assay [39]; 34.5% in assay [40]. Moreover, the “% Blocking” value in assay [41] is -36%. For the same molecule, the MFI came out at 1390 in assay [28]; 867 in [29]; 11400 in assay [30]; 971 in assay [31]; 674 in assay [32]; 924 in [33]. The MFI in assay [35] was determined as 1050; in assay [36], 1030; in assay [37], 1120; in assay [38], 968; in [39], 1070; in assay [40], 661. Also, in [41], the MFI is 1020. Moreover, the “ratio of Target/Control cells after AB11 plus complement” value in [34] was 0.103. The “% hCCR8-Ba/F3 - THP-1 complexes” value in assay [42] is 1.12%.

B2: Commercial 433H (antibody, from another filing, V domains shown)
VH: EVQLVETGGGLVQPKGSLRLSCAASGFPFNTFAMNWVRQAPGKGLEWLARIRSKSNNYATYYADSVKDRFTISRDDSRRMLYLLMNNVKFEDTAIYYCVRGKENNYGYAMDYWGQGTSVTVSS
VL: DIVMTQAAPSVPVTPGESVSISCRSSQSLLHSNGNTYLYWFLQRPGQSPQLLIYRMSNLASGVPDRFSGSGSGTAFTLRISRVEAEDVGVYYCMQHLEYPFTFGIGTKLELKR
In the assay with human CCR8 [43], B2 gave an MFI of 886. This molecule gave a % Positive cells in the assay with human CCR8 [44] of 1.76%.
